# T1: human erythropoietin receptor (EPOr), recombinant entire extracellular domain (human, UniProt P19235 25-250)
# T1 construct: extracellular domain; also called human EPOr; monomeric EPOr
# T1 sequence (looked up): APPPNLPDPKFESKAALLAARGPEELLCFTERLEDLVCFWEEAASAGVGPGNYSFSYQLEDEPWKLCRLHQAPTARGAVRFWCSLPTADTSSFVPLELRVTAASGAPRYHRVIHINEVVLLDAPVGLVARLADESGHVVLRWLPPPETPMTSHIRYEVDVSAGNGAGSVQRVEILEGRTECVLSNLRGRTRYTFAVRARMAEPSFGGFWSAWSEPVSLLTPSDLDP
# Key:
# [1] = molecular target: T1, human erythropoietin receptor (EPOr), …; assay: BIAcore 1000 SPR
# Protocol: (§1) A BIAcore analysis (Pharmacia) was performed to determine the binding affinity for human EPOr of murine 3G9 and CP3G9. The interaction of CP3G9 as well as murine 3G9 with EPOr was characterized using a BIAcore 1000 biosensor. Descriptions of the instrumentation and the sensor surfaces are described in Brigham-Burke et al., Anal. Biochem., 205:125-131 (1992).
# (§2) CP3G9 was captured onto a sensor surface of immobilized protein A. The kinetic binding constants were determined by passing solutions of monomeric EPOr over the surface and monitoring binding versus time. The equilibrium dissociation constant for the interaction was then derived from the ratio of the kinetic constants. The parent murine 3G9 was captured onto a surface of protein A captured rabbit anti-mouse Fc specific polyclonal antibody. The kinetics and dissociation constant for the interaction with EPOr was determined as described above. All measurements were made in 10 mM sodium phosphate, 150 mM NaCl pH 7.23 mM EDTA and 0.005% Tween 20. The flow rate was 60 uL/min. The temperature was 20° C.
# [2] = molecular target: T1, human erythropoietin receptor (EPOr), …; assay: BIAcore 1000 SPR; antibody captured on immobilized protein A, monomeric EPOr in solution, 20 C
# Protocol: as §1, §2
# [3] = molecular target: T1, human erythropoietin receptor (EPOr), …; assay: BIAcore 1000 SPR; antibody captured on immobilized protein A, monomeric EPOr in solution, 20 C; KD from ratio of kinetic constants
# Protocol: as §1, §2
# [4] = molecular target: T1, human erythropoietin receptor (EPOr), …; assay: BIAcore 1000 SPR; antibody captured on immobilized protein A, monomeric EPOr in solution, 20 C (exponent as printed; kon and KD imply 10^-3)
# Protocol: as §1, §2
# [5] = molecular target: T1, human erythropoietin receptor (EPOr), …; assay: BIAcore 1000 SPR; antibody captured by protein A-bound rabbit anti-mouse Fc, monomeric EPOr in solution, 20 C
# Protocol: as §1, §2
# [6] = molecular target: T1, human erythropoietin receptor (EPOr), …; assay: BIAcore 1000 SPR; antibody captured by protein A-bound rabbit anti-mouse Fc, monomeric EPOr in solution, 20 C; KD from ratio of kinetic constants
# Protocol: as §1, §2
# [7] = molecular target: T1, human erythropoietin receptor (EPOr), …; assay: BIAcore 1000 SPR; antibody captured by protein A-bound rabbit anti-mouse Fc, monomeric EPOr in solution, 20 C (exponent as printed; kon and KD imply 10^-3)
# Protocol: as §1, §2
# [8] = molecular target: T2, purified human alpha v beta 3 integrin (biotinylated) (human, UniProt P06756 31-1048; P05106 27-788, limits assumed); assay: ORIGEN electrochemiluminescence; antibody dilutions with biotinylated purified integrin, captured on streptavidin beads
# T2 construct: also called αvβ3; human integrin αvβ3
# T2 sequence (P06756 31-1048 limits assumed, form in doubt, chain 1 of 2): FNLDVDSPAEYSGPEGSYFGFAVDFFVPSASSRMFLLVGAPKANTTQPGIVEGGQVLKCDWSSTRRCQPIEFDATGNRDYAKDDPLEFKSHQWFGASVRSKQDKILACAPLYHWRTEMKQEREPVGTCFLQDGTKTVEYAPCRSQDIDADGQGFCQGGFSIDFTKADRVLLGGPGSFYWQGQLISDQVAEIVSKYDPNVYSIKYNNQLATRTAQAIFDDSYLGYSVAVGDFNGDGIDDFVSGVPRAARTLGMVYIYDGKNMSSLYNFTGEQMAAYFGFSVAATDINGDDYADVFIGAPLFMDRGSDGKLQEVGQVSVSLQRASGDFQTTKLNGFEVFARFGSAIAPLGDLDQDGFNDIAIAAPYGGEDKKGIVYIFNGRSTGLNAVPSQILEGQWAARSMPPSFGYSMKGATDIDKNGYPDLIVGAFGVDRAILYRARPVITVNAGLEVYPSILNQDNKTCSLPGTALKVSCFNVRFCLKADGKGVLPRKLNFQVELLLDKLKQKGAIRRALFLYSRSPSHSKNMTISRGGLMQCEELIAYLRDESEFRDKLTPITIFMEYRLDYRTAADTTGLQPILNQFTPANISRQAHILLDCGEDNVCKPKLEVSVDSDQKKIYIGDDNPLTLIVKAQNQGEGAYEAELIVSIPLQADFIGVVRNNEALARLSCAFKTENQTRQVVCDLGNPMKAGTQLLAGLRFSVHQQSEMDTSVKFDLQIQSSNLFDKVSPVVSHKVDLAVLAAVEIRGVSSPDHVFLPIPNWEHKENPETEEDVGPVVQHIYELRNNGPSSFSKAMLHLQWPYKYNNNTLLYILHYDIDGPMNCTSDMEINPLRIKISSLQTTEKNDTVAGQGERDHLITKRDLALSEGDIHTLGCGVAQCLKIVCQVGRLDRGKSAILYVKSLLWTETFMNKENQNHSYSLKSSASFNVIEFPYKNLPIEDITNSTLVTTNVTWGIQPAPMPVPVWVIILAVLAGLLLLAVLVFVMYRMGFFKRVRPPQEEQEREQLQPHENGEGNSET
# T2 sequence (P05106 27-788 limits assumed, form in doubt, chain 2 of 2): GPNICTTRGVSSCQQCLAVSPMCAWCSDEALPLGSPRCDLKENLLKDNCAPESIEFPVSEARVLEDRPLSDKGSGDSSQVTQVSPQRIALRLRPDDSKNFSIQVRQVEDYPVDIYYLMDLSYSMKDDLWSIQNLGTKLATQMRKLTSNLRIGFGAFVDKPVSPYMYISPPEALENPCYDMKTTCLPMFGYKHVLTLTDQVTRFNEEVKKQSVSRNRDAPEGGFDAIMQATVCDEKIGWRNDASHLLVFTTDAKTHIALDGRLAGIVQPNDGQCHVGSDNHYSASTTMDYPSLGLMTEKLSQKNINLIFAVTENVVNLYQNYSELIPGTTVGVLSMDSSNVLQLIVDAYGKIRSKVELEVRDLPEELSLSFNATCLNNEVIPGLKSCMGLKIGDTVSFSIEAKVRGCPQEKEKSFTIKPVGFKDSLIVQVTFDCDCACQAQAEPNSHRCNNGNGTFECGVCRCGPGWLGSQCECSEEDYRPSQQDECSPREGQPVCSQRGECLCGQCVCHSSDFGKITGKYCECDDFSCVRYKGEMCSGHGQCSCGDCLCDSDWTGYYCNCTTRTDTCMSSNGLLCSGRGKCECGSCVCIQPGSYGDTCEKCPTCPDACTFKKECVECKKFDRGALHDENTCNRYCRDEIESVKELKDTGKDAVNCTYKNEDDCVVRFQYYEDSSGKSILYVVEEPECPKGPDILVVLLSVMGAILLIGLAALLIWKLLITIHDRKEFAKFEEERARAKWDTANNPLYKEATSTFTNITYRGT
# Protocol: The relative binding avidity of CPB9 was compared to that of the original murine B9 antibody as follows. CPB9 antibodies present in culture supernatants from cells maintained in culture for 5 days after transfection with the expression constructs were compared to the parental murine B9 antibody using the ORIGEN technology (IGEN Inc, Gaithersburg, Md.). Briefly, different dilutions of the B9 variants were incubated with purified human αvβ3 integrin which had previously been biotinylated, and an electrochemiluminescent TAG moiety specific for the antibody C regions. B9 variant antibody bound to the integrin was measured by capturing the immune complexes onto streptavidin beads followed by analysis on the ORIGEN instrument.
binder,measurement,setting,value
"engineered 3G9 (CP3G9), chimpanzee framework engineered anti-erythropoietin receptor antibody (antibody, IgG1, V domains shown, They were ligated into vectors with IgG1,kappa antibody constant regions and expressed in COS cells; also called chimpanzee version of 3G9) VH: QVQLVQSGAEVKKPGSSVKVSCKASGSTFTSYWMHWVKQAPGQGLEWIGRIDPNSGGTKDNEKFKSKATLNVDKSTNIAYMELTSLRSEDTAVYYCARETYYDSSFAYWGQGTMVTVS VL: DIVMTQSPSSLSASVGDRVTITCKASQNVGTNVAWYQQKPGKAPKALIYSASYRYSGVPDRFSGSGSGTDFTLTISSLQPEDFATYYCQQYNSYPLTFGGGTKVEIK",fold difference of KD against murine 3G9,[1],≤ 3 fold
same,kon,[2],1e+06 M⁻¹ s⁻¹
same,Kd,[3],9.1 nM
same,koff,[4],0.0091 s⁻¹
"murine anti-erythropoietin receptor antibody 3G9 (antibody, V domains shown, Murine monoclonal antibody; also called murine 3G9; parent murine 3G9) VH: QVQLQQPGAELVKSGASVKLSCKASGSTFTSYWMHWVKQRPGRGLEWIGRIDPNSGGTKDNEKFKSKATLTVDKPSSTAYMQLSSLTSEDSAVYYCARETYYDSSFAYWGQGTLVTVSA VL: DIVMTQSQKFMSTSVGDRVSVTCKASQNVGTNVAWYQQKPGQSPKALIYSASYRYSGVPDRFTGSGSGTDFTLTISNVQSEDLAEYFCQQYNSYPLTFGAGTKLELKR",kon,[5],1.2e+06 M⁻¹ s⁻¹
same,Kd,[6],3.3 nM
same,koff,[7],0.004 s⁻¹
"engineered B9 (CPB9), chimpanzee framework engineered anti-integrin antibody (antibody, IgG1, V domains shown, They were ligated into vectors with IgG1,kappa antibody constant regions and expressed in COS cells; Tested as culture supernatant) VH: QVQLVQSGAEVKKPGSSVKVSCKASGYTFSSYWIEWVKQAPGQGLEWIGEILPRSGNTNYNEKFKGKASFNADTSTNIAYMELTSLRSEDTAVYYCSSRGVRGSMDYWGQGTLVTVSS VL: DIQMTQSPSSLSASVGDRVTITCRSSQDISNFLNWYQQKPGKAPKLLIYYTSTLHSGVPSRFSGSGSGTDYTLTISSLQPEDFATYYCQQGNTLPWTFGGGTKVEIKR",fold displacement of binding curve against murine B9,[8],~3 fold

# — patent publication US20020062009A1 (GlaxoSmithKline, published 2002)
